From patent US20040005550A1 (Scripps Research, published 2004) come the findings set out here.

In assay [1] the target is T1, human αvβ3 integrin on cells (human, UniProt P06756 31-1048; P05106 27-788).
T1 construct: whole, on cells; also called vitronectin receptor; αvβ3-CHO cells
The experiment in a line: flow cytometry binding isotherm, αvβ3-CHO cells, activating antibody AP5.
Method: (§1) Typically, cells were cultured overnight in low serum medium (e.g., 0.5% fetal bovine serum), resuspended in incubation buffer at 1-1.5×10⁷ cells/ml, and 4-6×10⁵ cells were incubated with one of these ligands for 30 min at room temperature in a final volume of 50 μl. […] After 30 min at room temperature, cells were washed and incubated with phycoerythrin-streptavidin (1:25 final dilution; Molecular Probes) for 20 min on ice. […] Cells were washed and resuspended in 0.5 ml incubation buffer containing 2 μg/ml propidium iodide (Sigma, St. Louis, Mo.). Ligand binding (FL1 channel) was analyzed immediately on the gated subset of live cells (propidium iodide-negative, FL3) that was strongly positive for αᵥβ₃ expression (FL2). Binding isotherms were subjected to non-linear, least squares regression analysis using an equation for one-site binding (Prism 2.0 software; GraphPad Software, San Diego, Calif.). Two-tailed P values for paired samples were obtained by Student's t test.

In assay [2] the target is T2, αIIbβ3 on human platelets (human, UniProt P08514 32-1039; P05106 27-788).
T2 construct: whole, on cells; also called platelet αIIbβ3
T2 sequence (P08514 32-1039, chain 1 of 2): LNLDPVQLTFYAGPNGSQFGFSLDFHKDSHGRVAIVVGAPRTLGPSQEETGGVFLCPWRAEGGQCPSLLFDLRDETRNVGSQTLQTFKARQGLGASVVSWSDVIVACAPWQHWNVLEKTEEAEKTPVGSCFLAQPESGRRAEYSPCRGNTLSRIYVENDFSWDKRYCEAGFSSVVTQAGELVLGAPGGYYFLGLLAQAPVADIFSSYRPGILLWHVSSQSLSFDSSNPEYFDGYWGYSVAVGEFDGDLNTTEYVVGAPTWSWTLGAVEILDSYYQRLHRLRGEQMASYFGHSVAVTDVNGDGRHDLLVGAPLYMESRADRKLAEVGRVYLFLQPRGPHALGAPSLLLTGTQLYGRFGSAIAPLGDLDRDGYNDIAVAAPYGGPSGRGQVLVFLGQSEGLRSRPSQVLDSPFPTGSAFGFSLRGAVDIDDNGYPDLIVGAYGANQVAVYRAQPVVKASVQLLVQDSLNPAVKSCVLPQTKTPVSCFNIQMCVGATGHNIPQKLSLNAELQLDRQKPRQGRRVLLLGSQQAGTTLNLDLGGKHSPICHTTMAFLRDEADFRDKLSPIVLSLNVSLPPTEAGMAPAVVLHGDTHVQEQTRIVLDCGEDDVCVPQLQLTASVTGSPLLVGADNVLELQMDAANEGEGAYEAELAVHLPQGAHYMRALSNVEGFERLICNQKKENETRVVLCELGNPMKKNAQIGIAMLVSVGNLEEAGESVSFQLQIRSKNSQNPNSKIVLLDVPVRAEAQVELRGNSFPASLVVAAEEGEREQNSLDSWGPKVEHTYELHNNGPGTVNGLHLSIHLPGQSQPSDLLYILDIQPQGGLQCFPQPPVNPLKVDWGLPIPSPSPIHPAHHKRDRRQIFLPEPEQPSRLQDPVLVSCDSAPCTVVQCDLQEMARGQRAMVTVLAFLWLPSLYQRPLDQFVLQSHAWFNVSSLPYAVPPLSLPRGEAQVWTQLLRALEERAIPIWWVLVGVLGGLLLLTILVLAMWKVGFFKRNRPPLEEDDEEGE
T2 sequence (P05106 27-788, chain 2 of 2): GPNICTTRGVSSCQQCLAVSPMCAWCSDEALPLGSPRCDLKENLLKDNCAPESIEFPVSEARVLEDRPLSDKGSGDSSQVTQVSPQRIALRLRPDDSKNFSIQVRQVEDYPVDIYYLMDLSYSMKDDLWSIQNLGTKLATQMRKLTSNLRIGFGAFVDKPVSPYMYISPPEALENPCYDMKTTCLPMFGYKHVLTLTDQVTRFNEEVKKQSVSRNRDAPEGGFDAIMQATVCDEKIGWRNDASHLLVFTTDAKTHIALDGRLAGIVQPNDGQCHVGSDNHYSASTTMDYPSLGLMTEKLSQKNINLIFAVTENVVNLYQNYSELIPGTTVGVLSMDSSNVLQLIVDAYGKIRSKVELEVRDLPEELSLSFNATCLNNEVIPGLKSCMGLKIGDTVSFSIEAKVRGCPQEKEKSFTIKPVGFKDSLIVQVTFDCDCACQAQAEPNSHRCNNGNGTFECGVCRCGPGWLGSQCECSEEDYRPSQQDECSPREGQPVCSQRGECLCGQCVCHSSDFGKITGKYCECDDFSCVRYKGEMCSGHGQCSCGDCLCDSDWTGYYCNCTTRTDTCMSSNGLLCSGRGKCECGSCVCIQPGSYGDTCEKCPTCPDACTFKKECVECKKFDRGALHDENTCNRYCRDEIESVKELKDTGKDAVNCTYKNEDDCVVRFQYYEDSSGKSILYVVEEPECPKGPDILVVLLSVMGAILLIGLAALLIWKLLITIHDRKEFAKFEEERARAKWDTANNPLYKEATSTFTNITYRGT
The experiment in a line: flow cytometry on human platelets.

For assay [3], the target named is T1, human αvβ3 integrin on cells. The experiment in a line: flow cytometry binding isotherm, αvβ3-CHO cells, no treatment.
Method: as §1
Assay [4] has the same target. The experiment in a line: cell-based or functional assay.
For assay [5] the target is unchanged. The experiment in a line: flow cytometry, JY cells, 100 nM phorbol myristate acetate for 15 min.
For assay [6] the target is unchanged. The experiment in a line: flow cytometry, equilibrium binding, unstimulated αvβ3-CHO cells; reference aPB.

T1 sequence (P06756 31-1048, chain 1 of 2): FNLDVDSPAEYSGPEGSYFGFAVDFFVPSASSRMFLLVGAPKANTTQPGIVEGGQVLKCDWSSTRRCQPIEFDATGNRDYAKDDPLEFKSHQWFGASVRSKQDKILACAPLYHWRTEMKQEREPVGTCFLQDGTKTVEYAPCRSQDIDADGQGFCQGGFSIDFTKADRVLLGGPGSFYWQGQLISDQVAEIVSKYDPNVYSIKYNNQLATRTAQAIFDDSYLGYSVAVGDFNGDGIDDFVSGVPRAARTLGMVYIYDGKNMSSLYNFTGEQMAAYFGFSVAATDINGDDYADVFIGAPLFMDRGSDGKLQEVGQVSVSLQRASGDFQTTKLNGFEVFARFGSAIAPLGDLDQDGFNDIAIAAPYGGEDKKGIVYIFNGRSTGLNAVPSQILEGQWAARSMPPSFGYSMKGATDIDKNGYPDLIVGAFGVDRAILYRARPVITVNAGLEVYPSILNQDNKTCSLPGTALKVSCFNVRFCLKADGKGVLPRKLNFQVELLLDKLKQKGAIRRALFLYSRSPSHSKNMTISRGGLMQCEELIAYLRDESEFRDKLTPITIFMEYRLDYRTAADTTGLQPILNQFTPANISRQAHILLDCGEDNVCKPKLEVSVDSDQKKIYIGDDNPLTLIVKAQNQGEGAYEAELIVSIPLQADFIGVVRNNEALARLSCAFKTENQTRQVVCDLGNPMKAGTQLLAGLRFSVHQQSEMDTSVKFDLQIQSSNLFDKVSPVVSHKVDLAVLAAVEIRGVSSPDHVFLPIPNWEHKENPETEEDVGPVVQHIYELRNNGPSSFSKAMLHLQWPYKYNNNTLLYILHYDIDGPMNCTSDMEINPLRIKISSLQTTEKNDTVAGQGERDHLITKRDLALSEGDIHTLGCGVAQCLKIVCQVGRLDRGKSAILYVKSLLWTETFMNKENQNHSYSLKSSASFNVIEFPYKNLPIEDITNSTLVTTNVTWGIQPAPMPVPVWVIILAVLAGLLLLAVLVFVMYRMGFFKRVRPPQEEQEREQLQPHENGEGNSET
T1 sequence (P05106 27-788, chain 2 of 2): as the sequence (P05106 27-788, chain 2 of 2) above

B1: Recombinant penton base from adenovirus type 2 (ligand)
chain: MQRAAMYEEGPPPSYESVVSAAPVAAALGSPFDAPLDPPFVPPRYLRPTGGRNSIRYSELAPLFDTTRVYLVDNKSTDVASLNYQNDHSNFLTTVIQNNDYSPGEASTQTINLDDRSHWGGDLKTILHTNMPNVNEFMFTNKFKARVMVSRSLTKDKQVELKYEWVEFTLPEGNYSETMTIDLMNNAIVEHYLKVGRQNGVLESDIGVKFDTRNFRLGFDPVTGLVMPGVYTNEAFHPDIILLPGCGVDFTHSRLSNLLGIRKRQPFQEGFRITYDDLEGGNIPALLDVDAYQASLKDDTEQGGDGAGGGNNSGSGAEENSNAAAAAMQPVEDMNDHAIRGDTFATRAEEKRAEAEAAAEAAAPAAQPEVEKPQKKPVIKPLTEDSKKRSYNLISNDSTFTQYRSWYLAYNYGDPQTGIRSWTLLCTPDVTCGSEQVYWSLPDMMQDPVTFRSTSQISNFPVVGAELLPVHSKSFYNDQAVYSQLIRQFTSLTHVFNRFPENQILARPPAPTITTVSENVPALTDHGTLPLRNSIGGVQRVTITDARRRTCPYVYKALGIVSPRVLSSRTF
notes: also called Alexa-penton base; aPB
Take B1: the Kd in assay [1] is 160 nM; in assay [3] it was 550 nM. Also, in assay [2], the binding result is recorded as “no binding”. Also, the “shift of the adhesion dose-response curve with AP5 against no additive” value in assay [4] was 7 fold. In addition, in assay [5], the “fold increase in specific binding with phorbol myristate acetate against no agonist” value stood at 2.7 fold.

B2: Purified human fibrinogen (ligand)
chain 1: ADSGEGDFLAEGGGVRGPRVVERHQSACKDSDWPFCSDEDWNYKCPSGCRMKGLIDEVNQDFTNRINKLKNSLFEYQKNNKDSHSLTTNIMEILRGDFSSANNRDNTYNRVSEDLRSRIEVLKRKVIEKVQHIQLLQKNVRAQLVDMKRLEVDIDIKIRSCRGSCSRALAREVDLKDYEDQQKQLEQVIAKDLLPSRDRQHLPLIKMKPVPDLVPGNFKSQLQKVPPEWKALTDMPQMRMELERPGGNEITRGGSTSYGTGSETESPRNPSSAGSWNSGSSGPGSTGNRNPGSSGTGGTATWKPGSSGPGSTGSWNSGSSGTGSTGNQNPGSPRPGSTGTWNPGSSERGSAGHWTSESSVSGSTGQWHSESGSFRPDSPGSGNARPNNPDWGTFEEVSGNVSPGTRREYHTEKLVTSKGDKELRTGKEKVTSGSTTTTRRSCSKTVTKTVIGPDGHKEVTKEVVTSEDGSDCPEAMDLGTLSGIGTLDGFRHRHPDEAAFFDTASTGKTFPGFFSPMLGEFVSETESRGSESGIFTNTKESSSHHPGIAEFPSRGKSSSYSKQFTSSTSYNRGDSTFESKSYKMADEAGSEADHEGTHSTKRGHAKSRPV
chain 2: QGVNDNEEGFFSARGHRPLDKKREEAPSLRPAPPPISGGGYRARPAKAAATQKKVERKAPDAGGCLHADPDLGVLCPTGCQLQEALLQQERPIRNSVDELNNNVEAVSQTSSSSFQYMYLLKDLWQKRQKQVKDNENVVNEYSSELEKHQLYIDETVNSNIPTNLRVLRSILENLRSKIQKLESDVSAQMEYCRTPCTVSCNIPVVSGKECEEIIRKGGETSEMYLIQPDSSVKPYRVYCDMNTENGGWTVIQNRQDGSVDFGRKWDPYKQGFGNVATNTDGKNYCGLPGEYWLGNDKISQLTRMGPTELLIEMEDWKGDKVKAHYGGFTVQNEANKYQISVNKYRGTAGNALMDGASQLMGENRTMTIHNGMFFSTYDRDNDGWLTSDPRKQCSKEDGGGWWYNRCHAANPNGRYYWGGQYTWDMAKHGTDDGVVWMNWKGSWYSMRKMSMKIRPFFPQQ
chain 3: YVATRDNCCILDERFGSYCPTTCGIADFLSTYQTKVDKDLQSLEDILHQVENKTSEVKQLIKAIQLTYNPDESSKPNMIDAATLKSRKMLEEIMKYEASILTHDSSIRYLQEIYNSNNQKIVNLKEKVAQLEAQCQEPCKDTVQIHDITGKDCQDIANKGAKQSGLYFIKPLKANQQFLVYCEIDGSGNGWTVFQKRLDGSVDFKKNWIQYKEGFGHLSPTGTTEFWLGNEKIHLISTQSAIPYALRVELEDWNGRTSTADYAMFKVGPEADKYRLTYAYFAGGDAGDAFDGFDFGDDPSDKFFTSHNGMQFSTWDNDNDKFEGNCAEQDGSGWWMNKCHAGHLNGVYYQGGTYSKASTPNGYDNGIIWATWKTRWYSMKKTTMKIIPFNRLTIGEGQQHHLGGAKQAGDV
notes: also called FITC-fibrinogen
As to B2, the Kd is 566 nM in assay [1] and 9200 nM in assay [3]. Also, the “fold lower affinity/avidity than for aPB” value in assay [6] was approximately 15 fold.
